In patent US20230399393A1, “METHODS TO EXTEND HEALTH-SPAN AND TREAT AGE-RELATED DISEASES” (National University of Singapore, priority 2020, published 2023):

How the values were obtained:
C57Bl/6J mice [1] = assay: Analysis of organ fibrosis (hydroxyproline assay, Masson's trichrome); assay type: in vivo, mouse; conditions: at 110 weeks; heart, lung, kidney, skeletal muscle; vs IgG control antibody
Description: C57Bl/6J mice are randomised to receive either X203 or IgG control antibody at a dose of 40m/kg via IP injection every 3 weeks from age 55 weeks to age 110 weeks.
At 110 weeks, global tissue collagen content is evaluated in the heart, lung, kidney and skeletal muscle tissues by hydroxyproline assay. Tissue sections from these tissues are also subjected to Masson's trichrome staining and analysed by light microscopy (blinded to treatment group).

C57Bl/6J mice [2] = assay: Metabolic function: serum/liver triglyceride, serum cholesterol, serum hydroxybutyrate; assay type: in vivo, mouse
Description: C57Bl/6J mice were randomised to receive either X203 or IgG control antibody at a dose of 40 mg/kg via IP injection every 3 weeks from age 55 weeks to age 110 weeks, and serum triglyceride, liver triglyceride, serum cholesterol and serum p-hydroxybutyrate levels were measured using Triglyceride Assay Kit (ab65336, Abcam), Cholesterol Assay Kit (ab65390, Abcam), and Beta-Hydroxybutyrate Colorimetric Assay Kit (700190; Cayman chemicals), in accordance with the manufacturer's instructions. Levels of serum triglyceride, liver triglyceride, serum cholesterol and serum p-hydroxybutyrate were also analysed in 12 week-old male and female C57Bl/6J mice, in order to determine baseline levels. Data were analysed by 2-way ANOVA.

[3] = test system: Primary human cardiac fibroblasts; assay: IL11 or TGFβ1 stimulated fibroblasts with X203, X209 or IgG, western blot; assay type: cell-based; conditions: IL11/TGFβ1 10 ng/ml, 24 hours; antibody 2 μg/ml
Description: FIG. 19. Western blot image showing the levels of p-ERK, ERK, p-P90RSK, P90RSK, p-LKB1, LKB1, p-AMPK, AMPK, p-mTOR, mTOR, p-p70S6K, p70S6K, p-S6RP, S6RP, SMA, and GAPDH in primary human cardiac fibroblasts that are unstimulated (BL) or stimulated for 24 hours with either IL11 or TGFβ1 in the presence of X203, X209, or IgG (11E10) isotype control. IL11/TGFβ1 (10 ng/ml), IgG/X203/X209 (2 μg/ml).
Primary human cardiac fibroblasts were stimulated with IL11 or TGFβ1, or unstimulated (BL).

[4] = test system: Primary human hepatocytes; assay: Hepatocytes stimulated with IL-11, BSA or palmitate with X203, X209 or IgG, western blot; assay type: cell-based; conditions: 24 hours; antibody 2 μg/ml; IL11 10 ng/ml or palmitate 0.5 mM
Description: FIG. 20. Western blot image showing the levels of p-ERK, ERK, p-P90RSK, P90RSK, p-LKB1, LKB1, p-AMPK, AMPK, p-Acetyl-CoA Carboxylase (p-ACC), Acetyl-CoA Carboxylase (ACC), p-mTOR, mTOR, p-p70S6K, p70S6K, p-S6RP, S6RP in primary human hepatocytes that are unstimulated (BL) or stimulated for 24 hours with either IL11, 0.5% BSA, or palmitate (saturated fatty acid) in the presence of X203, X209, or IgG (11E10) isotype control. IL11 (10 ng/ml), IgG/X203/X209 (2 μg/ml), palmitate (0.5 mM) conjugated in free BSA (0.5% BSA solution) in the ratio of 6:1.
Primary human hepatocytes (stimulated with IL-11, BSA or palmitate, or unstimulated) were treated with X203 (anti-IL-11 antagonist antibody) and X209 (anti-IL-11Rα antagonist antibody). […] Treatment with X203 or X209 essentially reverses the effect of palmitate stimulation on these markers to the levels observed in the unstimulated control.

C57Bl/6J mice [5] = assay: Ageing pathways in tissues of old mice receiving X203, western blot and densitometry; assay type: in vivo, mouse; conditions: 110-week old mice
Description: The same results are observed in the gastrocnemii (FIGS. 45 and 46), solei (FIGS. 47 and 48) and abdominal fat (FIGS. 49 and 50) of old mice treated with X203.
Male and female C57Bl/6J mice aged 46 weeks were purchased from the Jackson Laboratory. Mice were randomised on a 1:1 basis to receive either 40 mg/kg of X203 or an isotype control IgG antibody (11E10), every 3 weeks (IP), starting from 55 weeks of age. Mice were sacrificed at 110 weeks of age for blood and tissues collection. 12 weeks old male and female C57Bl/6J mice that were used as control were purchased from Invivos (Singapore).
Western blots were carried out on total protein extracts from primary human cardiac fibroblasts (HCFs), hepatic stellate cells (HSCs), hepatocytes, livers, gastrocnemii, solei, and abdominal fats. Cell or tissue lysates were homogenized in RIPA Lysis and Extraction Buffer (89901, Thermo Scientific) containing protease and phosphatase inhibitors (Roche). Protein lysates were separated by SDS-PAGE, transferred to PVDF membranes, blocked for 1 h with 3% BSA, and incubated overnight with either phospho-ACC (11818, CST), ACC (3676, CST), phospho-AMPK (2535, CST), AMPK (5832, CST), phospho-ERK1/2 (4370, CST), ERK1/2 (4695, CST), GAPDH (2118, CST), phospho-LKB1 S428 (3482, CST), phospho-LKB1 (S325), LKB1 (3047, CST), (phospho-mTOR (2971, CST), mTOR (2972, CST), p16 (ab232402, Abcam), p21 (64016, CST), phospho-p70S6K (9205, CST), p70S6K (2708, CST), phospho-S6 ribosomal protein (4858, CST), or S6 ribosomal protein (2217, CST). All primary antibodies are diluted 1:1000 in 1% BSA. Protein bands were visualized using the ECL detection system (Pierce) with anti-rabbit HRP (1:2000 in 3% BSA, 7074, CST).

[6] = treatment from age 55 to 110 weeks
[7] = compared with the liver results

B1: X203: mouse anti-mouse IL-11 IgG antagonist antibody; VH SEQ ID NO:22, VL SEQ ID NO:23 (antibody, V domains shown)
VH: EVQLQQSGPELVKPGASVKIPCKASGYTFTDYNMDWVKQSHGKSLEWIGDINPHNGGPIYNQKFTGKATLTVDKSSSTAYMELRSLTSEDTAVYYCARGELGHWYFDVWGTGTTVTVSS
VL: DIVLTQSPASLAVSLGQRATISCRASKSVSTSGYSYIHWYQQKPGQPPKLLIYLASNLDSGVPARFSGSGSGTDFTLNIHPVEEEDAATYYCQHSRDLPPTFGGGTKLEIK
For B1, the “fibrosis in the tissues analysed” value (C57Bl/6J mice [1]) was “less”, the “reduction in serum triglyceride levels relative to IgG control” value (C57Bl/6J mice [2]; female mice, baseline 12 week old female 37 mg/dl) was 47% and the “reduction in serum cholesterol levels relative to IgG control” value (C57Bl/6J mice [2]; female mice, baseline 12 week old female 90 mg/dl) was 51%. For the same molecule, the “reduction in liver triglyceride levels relative to IgG control” value (C57Bl/6J mice [2]; female mice, baseline 12 week old female 130 mg/g) was 54%, the “reduction in serum triglyceride levels relative to IgG control” value (C57Bl/6J mice [2]; male mice, baseline 12 week old male 54 mg/dl) was 65% and the “reduction in serum cholesterol levels relative to IgG control” value (C57Bl/6J mice [2]; male mice, baseline 12 week old male 149 mg/dl) was 45%. For the same molecule, the “reduction in liver triglyceride levels relative to IgG control” value (C57Bl/6J mice [2]; male mice, baseline 12 week old male 165 mg/g) was 71%, the “aging-associated hypertriglyceridemia, steatosis (liver fat accumulation) and hypercholesterolemia” value (C57Bl/6J mice [2]; [6]) was “reduce” and the “levels of circulating β-hydroxybutyrate” value (C57Bl/6J mice [2]; [6]) was “increase”. For the same molecule, the “level of phosphorylation of markers ERK, p90RSK, LKB1, mTOR, p70S6K and S6RP” value [3] was “significantly reduce”, the “levels of p-AMPK and p-ACC” value [4] was “increase” and the “levels of phosphorylated markers p-ERK, p-p90RSK, p-LKB1, p-mTOR, p-p70S6K and p-S6RP” value [4] was “reduces”. The “ERK/LKB1/mTORC1 activity, AMPK activity, p16 and p21 expression in gastrocnemii” value (C57Bl/6J mice [5]; [7]) was “same results”, the “ERK/LKB1/mTORC1 activity, AMPK activity, p16 and p21 expression in solei” value (C57Bl/6J mice [5]; [7]) was “same results” and the “AMPK activity in livers” value (C57Bl/6J mice [5]; vs IgG control) was “more”. For the same molecule, the “ERK/LKB1/mTORC1 activity in livers” value (C57Bl/6J mice [5]; vs IgG control) was “less” and the “expression of key senescence markers (p16 and p21) in livers” value (C57Bl/6J mice [5]; vs IgG control) was “less”.
